The numbers were not newly measured in paper PMC6431256, which cites them from elsewhere.

In this series the target is tau peptide (Homo sapiens) (UniProt P10636). The experiment in a line: ITC.
Chain of tau peptide (Homo sapiens) (P10636 2-758): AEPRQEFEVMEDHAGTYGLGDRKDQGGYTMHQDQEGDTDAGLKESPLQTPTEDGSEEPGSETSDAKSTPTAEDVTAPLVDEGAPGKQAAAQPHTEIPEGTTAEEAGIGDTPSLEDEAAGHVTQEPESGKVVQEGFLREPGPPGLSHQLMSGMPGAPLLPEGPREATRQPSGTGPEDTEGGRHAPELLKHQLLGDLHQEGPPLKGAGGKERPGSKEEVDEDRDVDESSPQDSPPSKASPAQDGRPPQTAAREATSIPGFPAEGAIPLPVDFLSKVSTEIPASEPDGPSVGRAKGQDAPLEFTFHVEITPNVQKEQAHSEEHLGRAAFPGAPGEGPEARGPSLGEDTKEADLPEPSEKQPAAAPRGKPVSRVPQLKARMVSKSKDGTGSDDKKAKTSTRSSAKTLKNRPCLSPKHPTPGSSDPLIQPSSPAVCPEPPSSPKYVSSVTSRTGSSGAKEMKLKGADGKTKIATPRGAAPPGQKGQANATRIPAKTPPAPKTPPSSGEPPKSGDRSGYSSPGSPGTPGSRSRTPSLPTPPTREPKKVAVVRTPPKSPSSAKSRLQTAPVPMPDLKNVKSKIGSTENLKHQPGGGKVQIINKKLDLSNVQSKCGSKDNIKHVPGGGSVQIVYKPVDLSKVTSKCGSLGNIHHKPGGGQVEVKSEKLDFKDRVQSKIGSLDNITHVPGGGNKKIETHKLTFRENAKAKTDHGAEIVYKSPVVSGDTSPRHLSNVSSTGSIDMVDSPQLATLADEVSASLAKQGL

Chain of Pin1 (Q13526 whole entry): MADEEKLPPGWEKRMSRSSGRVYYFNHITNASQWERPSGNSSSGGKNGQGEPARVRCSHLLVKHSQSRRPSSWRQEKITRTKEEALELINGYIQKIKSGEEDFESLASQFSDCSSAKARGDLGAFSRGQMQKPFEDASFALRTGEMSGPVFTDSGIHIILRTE

As for Pin1 (from UniProt Q13526), the Kd (as a rule, the equilibrium constant for the complex coming apart) was 200 µM.
